Measurements as given in article PMC6918743, “Mammalian TRP ion channels are insensitive to membrane stretch” (Journal of Cell Science, 2019).

B1: mouse TRPC6, full-length (WT) protein (natural protein, UniProt Q61143 1-930, looked up)
chain: MSQSPRFVTRRGGSLKAAPGAGTRRNESQDYLLMDELGDDGYPQLPLPPYGYYPSFRGNENRLTHRRQTILREKGRRLANRGPAYMFNDHSTSLSIEEERFLDAAEYGNIPVVRKMLEECHSLNVNCVDYMGQNALQLAVANEHLEITELLLKKENLSRVGDALLLAISKGYVRIVEAILNHPAFAEGKRLATSPSQSELQQDDFYAYDEDGTRFSHDVTPIILAAHCQEYEIVHTLLRKGARIERPHDYFCKCTECSQKQKHDSFSHSRSRINAYKGLASPAYLSLSSEDPVMTALELSNELAVLANIEKEFKNDYRKLSMQCKDFVVGLLDLCRNTEEVEAILNGDAETRQPGDFGRPNLSRLKLAIKYEVKKFVAHPNCQQQLLSIWYENLSGLRQQTMAVKFLVVLAVAIGLPFLALIYWCAPCSKMGKILRGPFMKFVAHAASFTIFLGLLVMNAADRFEGTKLLPNETSTDNARQLFRMKTSCFSWMEMLIISWVIGMIWAECKEIWTQGPKEYLFELWNMLDFGMLAIFAASFIARFMAFWHASKAQSIIDANDTLKDLTKVTLGDNVKYYNLARIKWDPTDPQIISEGLYAIAVVLSFSRIAYILPANESFGPLQISLGRTVKDIFKFMVIFIMVFVAFMIGMFNLYSYYIGAKQNEAFTTVEESFKTLFWAIFGLSEVKSVVINYNHKFIENIGYVLYGVYNVTMVIVLLNMLIAMINSSFQEIEDDADVEWKFARAKLWFSYFEEGRTLPVPFNLVPSPKSLLYLLLKFKKWMCELIQGQKQGFQEDAEMNKRNEEKKFGISGSHEDLSKFSLDKNQLAHNKQSSTRSSEDYHLNSFSNPPRQYQKIMKRLIKRYVLQAQIDKESDEVNEGELKEIKQDISSLRYELLEEKSQNTEDLAELIRKLGERLSLEPKLEESRR
notes: TRPC6, Mus musculus, full-length (WT) protein; Tags removed with ProTEV Plus protease; solubilised in DDM; also called mTRPC6; WT TRPC6; source: Sf9 (baculovirus, Bac-to-Bac), purified (amylose resin, Superose 6); not shown: His8, N-terminal, cleaved; MBP, N-terminal, cleaved
B2: Δ94 mTRPC6 (94 aa N-terminally truncated mouse TRPC6) (domain or fragment, UniProt Q61143 95-930, looked up)
chain: SIEEERFLDAAEYGNIPVVRKMLEECHSLNVNCVDYMGQNALQLAVANEHLEITELLLKKENLSRVGDALLLAISKGYVRIVEAILNHPAFAEGKRLATSPSQSELQQDDFYAYDEDGTRFSHDVTPIILAAHCQEYEIVHTLLRKGARIERPHDYFCKCTECSQKQKHDSFSHSRSRINAYKGLASPAYLSLSSEDPVMTALELSNELAVLANIEKEFKNDYRKLSMQCKDFVVGLLDLCRNTEEVEAILNGDAETRQPGDFGRPNLSRLKLAIKYEVKKFVAHPNCQQQLLSIWYENLSGLRQQTMAVKFLVVLAVAIGLPFLALIYWCAPCSKMGKILRGPFMKFVAHAASFTIFLGLLVMNAADRFEGTKLLPNETSTDNARQLFRMKTSCFSWMEMLIISWVIGMIWAECKEIWTQGPKEYLFELWNMLDFGMLAIFAASFIARFMAFWHASKAQSIIDANDTLKDLTKVTLGDNVKYYNLARIKWDPTDPQIISEGLYAIAVVLSFSRIAYILPANESFGPLQISLGRTVKDIFKFMVIFIMVFVAFMIGMFNLYSYYIGAKQNEAFTTVEESFKTLFWAIFGLSEVKSVVINYNHKFIENIGYVLYGVYNVTMVIVLLNMLIAMINSSFQEIEDDADVEWKFARAKLWFSYFEEGRTLPVPFNLVPSPKSLLYLLLKFKKWMCELIQGQKQGFQEDAEMNKRNEEKKFGISGSHEDLSKFSLDKNQLAHNKQSSTRSSEDYHLNSFSNPPRQYQKIMKRLIKRYVLQAQIDKESDEVNEGELKEIKQDISSLRYELLEEKSQNTEDLAELIRKLGERLSLEPKLEESRR
notes: TRPC6, Mus musculus, N-terminal truncation of 94 aa (Δ94); The limit 95 follows from the printed '94 aa truncated' N-terminal truncation; Tags removed with ProTEV Plus protease; solubilised in DDM; also called Δ94 TRPC6; N-terminal truncation (Δ94) of TRPC6; source: Sf9 (baculovirus, Bac-to-Bac), purified (amylose resin, Superose 6); not shown: His8, N-terminal, cleaved; MBP, N-terminal, cleaved

Biological target: the molecule itself
Assay: SEC; Superose 6 10/300 GL column; 150 mM NaCl, 20 mM HEPES, 2 mM TCEP (pH 7.4); DDM-mTRPC6 protein complex; peak assigned to the tetramer

Row | Protein | stoichiometry N
1 | B1 | 4
2 | B2 | 4
